One data set concerns the target VEGF-A121 (Homo sapiens (Human), UniProt P15692 27-147, none (E. coli)). Briefly: SPR; TBSE 10 mM Tris-HCl pH 7.0, 100 mM NaCl, 0.05 mM EDTA (folded with 50 mM KCl in Fig 3), 24 C; VEGF on CM5. As to conditions: chain copies: 2.
The target of another data set is VEGF-A165 (Homo sapiens (Human), UniProt P15692 27-191, N-glycosylated (Sf21)). The data set is described as above. As to conditions: chain copies: 2.
VEGF-A165, sequence (P15692 other isoform, or with tags, fused parts or gaps): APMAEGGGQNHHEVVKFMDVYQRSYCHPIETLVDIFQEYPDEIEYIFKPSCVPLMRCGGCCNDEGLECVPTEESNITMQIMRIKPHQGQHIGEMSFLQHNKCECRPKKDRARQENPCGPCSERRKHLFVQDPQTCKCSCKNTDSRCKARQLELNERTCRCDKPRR

VEGF-A121, sequence (P15692 other isoform, or with tags, fused parts or gaps): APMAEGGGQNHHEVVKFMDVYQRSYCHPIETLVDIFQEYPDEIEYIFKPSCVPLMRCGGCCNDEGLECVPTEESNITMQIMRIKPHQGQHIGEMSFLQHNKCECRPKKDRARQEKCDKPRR

B1: V7t1 (ssDNA)
DNA: TGTGGGGGTGGACGGGCCGGGTAGA
modifications: G-quadruplex
Turning to B1, the Kd with VEGF-A121 came out at 1.1 nM.

B2: Vap7 (ssDNA)
DNA: ATACCAGTCTATTCAATTGCACTCTGTGGGGGTGGACGGGCCGGGTAGATAGTATGTGCAATCA
modifications: G-quadruplex
Consider B2, for which the dissociation constant Kd with VEGF-A165 is 20 nM; in the data set with VEGF-A121, 1 nM.

The values are drawn from article PMC6256979, “Screening and Improvement of an Anti-VEGF DNA Aptamer”.
